# Results: US20040180823A1 (BURNHAM INSTITUTE, published 2004)
# Ends that are not written are not given here.
# Tests used:
# [1] = target: T1, histidine-tagged mouse EphA2 Fc fusion protein (R&D Systems) (mouse, UniProt Q03145 26-535, limits assumed); assay: SPR (BIAcore 3000), EphA2 Fc coupled to chip, equilibrium binding
# T1 construct: Bought; not shown: Fc portion and histidine tag
# EphB4 Fc fusion protein = target: T2, EphB4 Fc fusion protein; assay: immobilized peptide capturing Eph receptor Fc (methods of Example 2)
# T2 construct: Eph receptor Fc fusion
# T2 sequence (P54761 16-539): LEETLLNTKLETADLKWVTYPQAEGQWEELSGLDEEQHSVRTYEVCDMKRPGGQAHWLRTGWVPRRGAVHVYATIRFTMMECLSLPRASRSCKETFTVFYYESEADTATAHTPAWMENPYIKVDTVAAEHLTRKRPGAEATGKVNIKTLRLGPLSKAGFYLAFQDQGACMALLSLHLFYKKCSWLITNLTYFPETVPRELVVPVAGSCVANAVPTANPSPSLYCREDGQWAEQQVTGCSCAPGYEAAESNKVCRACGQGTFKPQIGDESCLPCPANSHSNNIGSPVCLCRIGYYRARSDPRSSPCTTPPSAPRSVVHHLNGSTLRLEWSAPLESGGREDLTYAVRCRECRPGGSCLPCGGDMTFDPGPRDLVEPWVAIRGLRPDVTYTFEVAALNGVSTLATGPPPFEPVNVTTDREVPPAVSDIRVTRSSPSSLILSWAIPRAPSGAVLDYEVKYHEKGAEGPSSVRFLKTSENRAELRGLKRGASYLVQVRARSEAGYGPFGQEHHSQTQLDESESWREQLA
# Source text: Bound Eph receptors were detected with anti-human Fc antibody conjugated to alkaline phosphatase (AP) (Promega, Madison, Wis.). […] Substrates were 2,2′-azino-bis(3-ethylbenzthiazoline-6-sulfonic acid) for horseradish peroxidase and p-nitrophenyl phosphate for AP.
# T1 sequence (Q03145 26-535 limits assumed): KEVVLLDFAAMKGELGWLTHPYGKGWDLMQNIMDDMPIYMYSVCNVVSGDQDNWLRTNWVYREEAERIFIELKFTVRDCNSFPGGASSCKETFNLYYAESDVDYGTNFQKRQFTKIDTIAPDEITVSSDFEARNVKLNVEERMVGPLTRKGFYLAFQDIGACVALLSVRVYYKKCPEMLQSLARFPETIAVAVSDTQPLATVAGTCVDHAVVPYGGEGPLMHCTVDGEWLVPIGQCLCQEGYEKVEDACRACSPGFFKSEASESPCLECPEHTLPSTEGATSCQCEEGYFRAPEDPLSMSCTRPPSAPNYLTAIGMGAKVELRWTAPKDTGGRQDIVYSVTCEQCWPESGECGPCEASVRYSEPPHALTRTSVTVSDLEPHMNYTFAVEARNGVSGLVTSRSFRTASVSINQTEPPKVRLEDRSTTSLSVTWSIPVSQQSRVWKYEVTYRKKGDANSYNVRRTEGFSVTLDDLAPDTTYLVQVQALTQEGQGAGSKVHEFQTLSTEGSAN
Kd [1],fold more EphB4 bound compared to other EphB family receptors (EphB4 Fc fusion protein),Binder
678 nM,,"SWLAYPGAVSYRGSGSK (also: biotinylated, position not given here) [SWL peptide (synthetic, biotinylated)]"
,4 fold,"DALNDWLLFRPWGSGSK (also: biotinylated, position not given here) [DAL synthetic peptide (biotinylated)]"
